1 substance from patent publication US20100098696A1 can be followed below.

Assay [1] addresses Murine FGFR-3(IIIc) expressed on L6 cells (murine) (UniProt Q61851). The experiment in a line: fluorescent antibody 200 nM on FGFR-3 transfected L6 cells, 1 h at 4° C. followed by acid stripping, Odyssey imaging.
The target is the same in assay [2]. The assay is described as follows: fluorescent antibody 200 nM on FGFR-3 transfected L6 cells, 1 h at 4° C., Odyssey imaging.
The target is the same in assay [3]. The assay is described as follows: fluorescent antibody 200 nM on FGFR-3 transfected L6 cells, 1 h at 37° C., Odyssey imaging.
The target is the same in assay [4]. The experiment in a line: fluorescent antibody 200 nM on FGFR-3 transfected L6 cells, 1 h at 37° C. followed by acid stripping, Odyssey imaging.

Sequence of Murine FGFR-3(IIIc) expressed on L6 cells (murine) (Q61851 21-801): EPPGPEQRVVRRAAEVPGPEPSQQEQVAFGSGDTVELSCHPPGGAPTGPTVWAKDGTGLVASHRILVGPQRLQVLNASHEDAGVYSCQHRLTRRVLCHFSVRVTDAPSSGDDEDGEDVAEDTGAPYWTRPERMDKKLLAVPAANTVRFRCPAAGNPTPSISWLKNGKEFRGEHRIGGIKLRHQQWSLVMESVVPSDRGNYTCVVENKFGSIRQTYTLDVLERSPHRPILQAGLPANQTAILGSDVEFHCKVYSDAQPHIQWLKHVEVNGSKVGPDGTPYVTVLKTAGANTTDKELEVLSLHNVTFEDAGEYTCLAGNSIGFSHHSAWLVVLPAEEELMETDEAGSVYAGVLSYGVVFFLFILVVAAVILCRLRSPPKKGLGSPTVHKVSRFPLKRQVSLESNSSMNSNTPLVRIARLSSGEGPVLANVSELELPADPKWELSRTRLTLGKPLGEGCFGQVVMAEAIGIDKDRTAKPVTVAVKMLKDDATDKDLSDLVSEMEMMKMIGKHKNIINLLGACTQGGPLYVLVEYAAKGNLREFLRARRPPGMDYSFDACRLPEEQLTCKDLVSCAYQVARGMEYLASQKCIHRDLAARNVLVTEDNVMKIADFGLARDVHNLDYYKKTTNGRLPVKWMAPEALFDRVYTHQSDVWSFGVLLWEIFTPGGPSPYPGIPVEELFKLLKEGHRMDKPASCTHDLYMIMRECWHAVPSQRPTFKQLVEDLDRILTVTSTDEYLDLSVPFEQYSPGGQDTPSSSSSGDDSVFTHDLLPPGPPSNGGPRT

In the case of “isotype-matched non-specific control antibody”, the relative fluorescent intensity is 0.6 in assay [1], 1.5 in assay [2], 1.1 in assay [3] and 1 in assay [4].
